Patent US20240239881A1 (Innovent, published 2024)

T1: Human ang2 protein (Sino Biological, Cat No.: 10691-H08H) (human, UniProt O15123 19-496)
T1 construct: Bought protein; also called recombinant hAng2; human hAng2
T1 sequence: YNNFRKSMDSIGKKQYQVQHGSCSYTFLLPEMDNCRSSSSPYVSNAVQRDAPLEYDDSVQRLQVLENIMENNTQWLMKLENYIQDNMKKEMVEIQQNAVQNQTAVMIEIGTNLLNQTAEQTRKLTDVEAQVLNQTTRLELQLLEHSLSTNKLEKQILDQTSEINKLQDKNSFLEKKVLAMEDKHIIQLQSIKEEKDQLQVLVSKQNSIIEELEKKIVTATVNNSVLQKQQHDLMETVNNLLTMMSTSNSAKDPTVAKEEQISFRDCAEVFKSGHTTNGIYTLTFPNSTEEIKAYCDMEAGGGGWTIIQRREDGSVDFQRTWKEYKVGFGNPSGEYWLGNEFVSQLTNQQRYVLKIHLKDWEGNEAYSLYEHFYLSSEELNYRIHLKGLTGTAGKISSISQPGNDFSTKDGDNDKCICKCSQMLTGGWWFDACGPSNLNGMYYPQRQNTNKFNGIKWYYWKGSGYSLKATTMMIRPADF

T2: Human Ang1 (human, UniProt Q15389 20-498, limits assumed)
T2 construct: also called hAng1
T2 sequence (looked up): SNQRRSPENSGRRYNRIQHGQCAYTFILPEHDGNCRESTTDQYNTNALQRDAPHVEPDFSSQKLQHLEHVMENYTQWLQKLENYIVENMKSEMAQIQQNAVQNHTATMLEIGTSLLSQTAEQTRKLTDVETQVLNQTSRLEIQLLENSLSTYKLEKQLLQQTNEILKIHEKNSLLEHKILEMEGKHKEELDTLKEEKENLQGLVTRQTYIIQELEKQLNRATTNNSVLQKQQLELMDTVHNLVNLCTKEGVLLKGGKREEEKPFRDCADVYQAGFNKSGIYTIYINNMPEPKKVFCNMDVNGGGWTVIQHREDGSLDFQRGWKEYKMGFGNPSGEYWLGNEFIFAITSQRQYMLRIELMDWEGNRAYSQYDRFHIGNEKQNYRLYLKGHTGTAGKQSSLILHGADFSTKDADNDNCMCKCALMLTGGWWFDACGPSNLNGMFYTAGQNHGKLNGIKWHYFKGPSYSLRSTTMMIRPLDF

T3: human Ang2 (human, UniProt O15123 19-496, limits assumed)
T3 construct: also called hAng2; h Ang2
T3 sequence: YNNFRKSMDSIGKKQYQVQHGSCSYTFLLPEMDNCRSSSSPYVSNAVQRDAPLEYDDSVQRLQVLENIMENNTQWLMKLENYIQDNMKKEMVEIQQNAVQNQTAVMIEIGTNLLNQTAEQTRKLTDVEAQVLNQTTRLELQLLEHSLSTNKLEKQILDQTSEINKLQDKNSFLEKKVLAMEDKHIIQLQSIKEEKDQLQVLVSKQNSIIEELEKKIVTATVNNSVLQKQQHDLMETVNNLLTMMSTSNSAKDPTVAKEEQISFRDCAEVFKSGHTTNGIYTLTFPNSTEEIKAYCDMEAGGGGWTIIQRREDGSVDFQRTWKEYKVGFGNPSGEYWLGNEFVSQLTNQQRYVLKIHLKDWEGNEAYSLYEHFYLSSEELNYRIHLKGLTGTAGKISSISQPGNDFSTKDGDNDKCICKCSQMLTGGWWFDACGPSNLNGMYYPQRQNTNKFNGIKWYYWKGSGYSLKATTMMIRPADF

T4: recombinant biotinylated hAngiopoietin-2 protein (R&D, Cat. No.: BT623B/CF) (human, UniProt O15123 19-496, limits assumed, biotinylated (sites not given))
T4 construct: Bought protein; also called Biotin Ang2; human biotin Ang2 protein
T4 sequence: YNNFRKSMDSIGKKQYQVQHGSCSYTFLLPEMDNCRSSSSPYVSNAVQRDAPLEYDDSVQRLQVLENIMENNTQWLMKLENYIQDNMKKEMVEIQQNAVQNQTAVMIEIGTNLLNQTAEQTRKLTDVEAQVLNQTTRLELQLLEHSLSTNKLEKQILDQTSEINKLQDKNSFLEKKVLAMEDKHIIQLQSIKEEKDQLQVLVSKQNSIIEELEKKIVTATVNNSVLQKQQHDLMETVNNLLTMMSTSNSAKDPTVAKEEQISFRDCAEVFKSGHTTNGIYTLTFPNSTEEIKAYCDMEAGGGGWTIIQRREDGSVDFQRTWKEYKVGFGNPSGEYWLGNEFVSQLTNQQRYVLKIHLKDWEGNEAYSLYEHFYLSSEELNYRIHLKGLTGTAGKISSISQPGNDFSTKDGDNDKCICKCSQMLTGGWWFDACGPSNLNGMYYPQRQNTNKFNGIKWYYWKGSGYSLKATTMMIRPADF


What was measured:
[1] = target: T1, Human ang2 protein (Sino Biological, …); test: ELISA: human ang2 protein (Sino Biological 10691-H08H) coated at 0.25 ug/ml, antibody titrated, HRP-conjugated secondary antibody, OD450-OD620, GraphPad fit
Experimental: The binding of the respective parental murine hybridoma antibodies of the above exemplary chimeric antibodies 81H10, 86E9, and 107H7 to human hAng2 was measured in an ELISA-based assay.
Human ang2 protein (Sino Biological, Cat No.: 10691-H08H) was diluted to 0.25 μg/ml with PBS, and was coated onto a microtiter plate at 100 μl/well at 4° C. overnight. After three washes with PBST, the plate was blocked with 5% BSA. Gradient diluted antibodies (maximum concentration 20 nM, 1:2 serial dilution) were added to the microtiter plate and incubated for 2 h. After three washes with PBST, a 1:10000 dilution of anti-mouse IgG, HRP-conjugated antibody (Cell Signaling, Cat. No. 7076P2) was added, and after incubation for 60 min, the plate was washed six times with PBST. Chromogenic reaction was performed with 100 ul TMB and terminated with 100 ul 2N sulfuric acid. The reading of OD₄₅₀-OD₆₂₀ was taken by microplate reader. The concentration-dependent curve was fitted with GraphPad based on the OD₄₅₀-OD₆₂₀.

[2] = target: T2, Human Ang1; test: ForteBio BLI, antibody on AHQ sensor
Experimental: (§1) The equilibrium dissociation constants (KD) of the above exemplary antibodies of the present invention binding to human Ang2 (h Ang2), cynomolgus monkey Ang2 (cAng2), murine Ang2 (mAng2), and human Ang1 (hAng1) were determined using the biological optical interferometry (ForteBio) assay.
(§2) The ForteBio affinity assay was performed according to the existing method (Estep, P et al., High throughput solution-based measurement of antibody-antigen affinity and epitope binning. MAbs, 2013.5 (2): p. 270-8). Briefly, the sensor was equilibrated in the assay buffer off-line for 30 min, followed by on-line detection for 60 s to establish the baseline. Then the purified antibodies obtained as described above were loaded on-line onto an AHQ sensor (ForteBio) for ForteBio affinity assay. The sensors with loaded antibodies were exposed to 100 nM of hAng2, cAng2, mAng2, and hAng1 antigens for 5 min, and then were transferred into the assay buffer for dissociation for 5 min to determine the dissociation rate. Kinetic analysis was performed using a 1:1 binding model.

[3] = target: T3, human Ang2; test: ForteBio BLI, antibody on AHQ sensor, 100 nM antigen, 1:1 model
Experimental: as §1, §2

[4] = target: T4, recombinant biotinylated …; test: blocking ELISA: antibody titrated against biotinylated hAng2 (300 ng/ml final); blocked binding to coated hTie2 protein; Avidin-HRP detection
Experimental: The abilities of 81H10, 86E9, 107H7, hz81H10.4, Amhz81H10.4.30, Amhz81H10.4.49, and the control antibodies Nesvacumab and faricimab to block the binding of human Ang2 to hTie2 were determined by ELISA. Faricimab is a bispecific antibody drug undergoing a clinical trial and developed by Roche, which targets both angiopoietin-2 (Ang-2) and VEGF-A.
Then the plate was blocked using 5% BSA for 1 h. The biotinylated antigen, recombinant biotinylated hAngiopoietin-2 protein (R&D, Cat. No.: BT623B/CF), was diluted to 600 ng/ml, and was added into the microtiter plate at 50 μl/well. The antibodies (81H10, 86E9, 107H7, hz81H10.4, Amhz81H10.4.30 and Amhz81H10.4.49) prepared as described above were gradiently diluted with a total of 8 or 12 dilution points starting from the highest concentration, and then added to the microtiter plate at 50 μl/well, and incubated in PBS on ice for 30 min. Then, 50 ul of antigen solution was added to the microtiter plate, in which the final antigen concentration was 300 ng/ml. The plate containing the antigen-antibody mixture was incubated for 90 min. After three washes with PBS, the supernatant was discarded, and Avidin-HRP (Invitrogen) diluted at 1:10000 was added at 100 μl/well, then incubated at room temperature for 30 min. PBS was used to wash the plate six times. Then TMB chromogen solution (solarbio) was added at 100 ul/well to allow for chromogenic reaction for 1 min, then the reaction was terminated with the addition of stop solution (solarbio) at 100 ul/well.

[5] = target: T4, recombinant biotinylated …; test: ELISA: biotin Ang2 (R&D BT623B/CF) captured on coated streptavidin (SA), antibody titrated, anti-human IgG-HRP, OD450-OD620, GraphPad fit
Experimental: The binding of 81H10 and hz81H10.4 of the present invention to human biotin Ang2 protein was measured in an SA-biotin Ang2-based ELISA assay.
SA protein (Thermo Fisher) was diluted to 1 μg/ml with PBS, and was coated onto a microtiter plate at 100 μl/well at 4° C. overnight. After three washes with PBST, the plate was blocked with 5% BSA for 1 h. Biotin Ang2 (R&D, Cat. No. BT623B/CF) was incubated at a concentration of 0.5 μg/ml for 1 h. Gradient diluted antibodies (maximum concentration 20 nM, 1:3 serial dilution) were added to the microtiter plate and incubated for 2 h, and the plate was washed three times with PBST. […] Then the plate was washed for 6 times with PBST. Chromogenic reaction was performed with 100 ul TMB and terminated with 100 ul 2N sulfuric acid. The reading of OD₄₅₀-OD₆₂₀ was taken by microplate reader. The concentration-dependent curve was fitted with GraphPad based on the OD₄₅₀-OD₆₂₀.

| EC50 [1] | binding result [2] | Kd [3] | IC50 [4] | EC50 [5] | Binder |
| --- | --- | --- | --- | --- | --- |
| 0.434 nM | – | – | – | – | parental murine hybridoma antibody of chimeric antibody 86E9 (antibody, V domains shown, Murine antibody from the hybridoma; also called 86E9 (murine hybridoma antibody)) VH: EVMLVESGGGLVQPGGSMKLSCVASGFTFSNYWMNWVRQSPEKGLEWVAEIRLKSNNYATHYAESVKGRFTISRDVSKSGVYLQMNNLRTEDTGIYYCTDTAPFAYWGQGTLVTVSA VL: DIVMTQSHKFLSTSVGARVSITCKASQDVGTDVAWYQQKPGQSPKLLIYWASTRHTGVPDRFTGSGSGTDFTLTISNVQSEDLSDYFCQQYSSYPLTFGGGTKLEIK |
| 0.248 nM | – | – | – | – | parental murine hybridoma antibody of chimeric antibody 81H10 (antibody, V domains shown, Murine antibody from the hybridoma; also called 81H10 (murine hybridoma antibody)) VH: EVKLEESGGGLVQPGGSMKLSCVASGFTFSNYWMNWVRQSPEKGLEWVAEIRLKSNNYATHYAESVKGRFTISRDVSKSSVYLQMNNLRTEDTGIYYCTDTAPFAYWGQGTLVTVSA VL: DIVMTQSHKFMSTSVGDRVSITCKASQDVGTDVAWYQQKPGQSPKLLIYWASTRHTGVPDRFTGSGSGTDFTLTISNVQSEDLSDYFCQQYSSYPLTFGGGTKLEIK |
| 0.231 nM | – | – | – | – | parental murine hybridoma antibody of chimeric antibody 107H7 (antibody, V domains shown, Murine antibody from the hybridoma; also called 107H7 (murine hybridoma antibody)) VH: EVMLVESGGGLVQPGGSMKLSCVASGFTFSNYWMNWVRQSPEKGLEWVAEIRLKSNNYATHYAESVKGRFTISRDVSKSGVYLQMNNLRTEDTGIYYCTDTAPFAYWGQGTLVTVSA VL: DIVMTQTPKFLSTSVGARVSITCKASQDVGTDVAWYQQKPGQSPKLLIYWASTRHTGVPDRFTGSGSGTDFTLTISNVQSEDLSDYFCQQYSSYPLTFGGGTKLEIK |
| – | no binding (tested: 100 nM) | 23.2 nM | 4.91 nM | – | affinity matured antibody Amhz81H10.4.30 (antibody, human IgG1, kappa, V domains shown) VH: EVQLVESGGGLVKPGGSLRLSCAASGFTFRAAWMNWVRQAPGKGLEWVAEIRLKSNHYETHYAESVKGRFTISRDVSKNTVYLQMNSLKTEDTAVYYCTDTQPGAYWGQGTLVTVSS VL: DIQMTQSPSSLSASVGDRVTITCKASQYVFTDVAWYQQKPGKAPKLLIYWASTRWTGVPSRFSGSGSGTDFTLTISSLQPEDFATYYCQQTSSYPLTFGGGTKVEIKR |
| – | no binding (tested: 100 nM) | 0.647 nM | 0.506 nM | – | affinity matured antibody Amhz81H10.4.49 (antibody, human IgG1, kappa, V domains shown, also called Am81H10.4.49) VH: EVQLVESGGGLVKPGGSLRLSCAASGFTFQNYWANWVRQAPGKGLEWVAEIRLKSNNYATHYAESVKGRFTISRDVSKNTVYLQMNSLKTEDTAVYYCTDTTPAAYWGQGTLVTVSS VL: DIQMTQSPSSLSASVGDRVTITCKASQDVWTDVAWYQQKPGKAPKLLIYWGSTRWTGVPSRFSGSGSGTDFTLTISSLQPEDFATYYCQQTNIYPLTFGGGTKVEIKR |
| – | no binding (tested: 100 nM) | 7.63 nM | 5.29 nM | – | chimeric antibody 86E9 (antibody, human IgG1, kappa) heavy: not shown light: DIVMTQSHKFLSTSVGARVSITCKASQDVGTDVAWYQQKPGQSPKLLIYWASTRHTGVPDRFTGSGSGTDFTLTISNVQSEDLSDYFCQQYSSYPLTFGGGTKLEIKRTVAAPSVFIFPPSDEQLKSGTASVVCLLNNFYPREAKVQWKVDNALQSGNSQESVTEQDSKDSTYSLSSTLTLSKADYEKHKVYACEVTHQGLSSPVTKSFNRGEC |
| – | no binding (tested: 100 nM) | 7.75 nM | 9.15 nM | – | chimeric antibody 107H7 (antibody, human IgG1, kappa) heavy: not shown light: DIVMTQTPKFLSTSVGARVSITCKASQDVGTDVAWYQQKPGQSPKLLIYWASTRHTGVPDRFTGSGSGTDFTLTISNVQSEDLSDYFCQQYSSYPLTFGGGTKLEIKRTVAAPSVFIFPPSDEQLKSGTASVVCLLNNFYPREAKVQWKVDNALQSGNSQESVTEQDSKDSTYSLSSTLTLSKADYEKHKVYACEVTHQGLSSPVTKSFNRGEC |
| – | no binding (tested: 100 nM) | 6.92 nM | 1.32 nM | 0.0142 nM | chimeric antibody 81H10 (antibody, human IgG1, kappa, V domains shown) VH: EVKLEESGGGLVQPGGSMKLSCVASGFTFSNYWMNWVRQSPEKGLEWVAEIRLKSNNYATHYAESVKGRFTISRDVSKSSVYLQMNNLRTEDTGIYYCTDTAPFAYWGQGTLVTVSA VL: DIVMTQSHKFMSTSVGDRVSITCKASQDVGTDVAWYQQKPGQSPKLLIYWASTRHTGVPDRFTGSGSGTDFTLTISNVQSEDLSDYFCQQYSSYPLTFGGGTKLEIKR |
